Laboratory results as given in US20250145695A1 (AC IMMUNE, published 2025).
Values joined by “and” are separate entries in the source; they are usually repeats but may differ in a detail not shown here. Equal entries are not always repeated.

T1: TP-51 peptide (human)
T1 construct: Synthetic peptide from Pepscan; also called synthetic TDP-43 peptide (TP-51)
T1 peptide: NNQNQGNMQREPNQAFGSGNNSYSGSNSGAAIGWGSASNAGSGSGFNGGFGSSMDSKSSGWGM


What was measured:
TP-51 peptide = target: T1, TP-51 peptide; experiment: SPR Biacore 8K, mAb captured by anti-human antibody, TP-51 injected, single-cycle kinetics
Method: The instrument was primed with running buffer PBS-P+. Fc 1-2 of channels 1-8 (8K) were activated with a fresh solution of EDC/NHS (Amine Coupling Kit, 1:1 ratio of both reagents, GE Healthcare Life Sciences, BR-1006-33) at 10 μL/min for 420 sec and goat anti-human antibody (GE Healthcare Life Sciences, 29234600) was immobilized at 25 μg/mL in 10 mM sodium acetate pH 5 for 420 sec. Next, all Fc were quenched with 1 M ethanol amine (GE Healthcare Life Sciences, BR-1006-33), for 420 sec. Any non-covalently bound antibodies were removed by two regenerations with 10 mM Glycine-HCl pH 1.7 for 30 sec. Immobilization levels were evaluated following ethanolamine quenching (10000 RU for all channels).
Each cycle started with non-covalent capture of humanized variants which were diluted in running buffer to a final concentration of 2 μg/mL and injected for 60 sec with a flow rate of 10 μL/min. TDP-43 mAbs were captured on channels 1-8, leaving Fc 1 as a blank Fc. Capture levels were evaluated following a 120 sec stabilization period after each mAb injection and ranged from 300-500 RU.
TP-51 consists of amino acids 352-414 of TDP-43 (SEQ ID NO: 1). Injections of TP-51 peptide (Pepscan) were performed in single-cycle kinetics with increasing concentrations ranging from 1.2-100 nM prepared from serial 3-fold dilutions. Injections were performed with contact times of 300 sec/injection at a flow rate of 25 μL/min. A dissociation phase of 3600 sec followed the final injection. Sensor surface was regenerated by one injection of 10 mM Glycine-HCl pH 1.7 at a flow rate of 10 μL/min for 120 sec, followed by a stabilization period of 300 sec. Results obtained from single-cycle kinetics were double-referenced using the blank Fc 1 and buffer cycles and evaluated by Biacore 8K evaluation software with 1:1 kinetic fit model with RI and global Rmax. The following kinetic parameters were obtained: association rate constant (ka), dissociation rate constant (kd), affinity constant (KD) and saturation response (Rmax).

soluble TDP-43 = target: T2, soluble TDP-43 (human, UniProt Q13148 1-414); experiment: SPR Biacore 8K, soluble TDP-43 immobilized on CM5, mAb injected, single-cycle kinetics
T2 construct: also called soluble full-length TDP-43; FL TDP-43
Method: The instrument was primed with running buffer PBS-P+ and flow cells (Fc) 1 and 2 of channels 1-8 were activated with a fresh solution of EDC/NHS (Amine Coupling Kit, 1:1 ratio of both reagents, GE Healthcare Life Sciences, BR-1006-33) at 10 μL/min for 420 sec. Soluble TDP-43 (Selvita) was diluted in sodium acetate pH 4.5 to a final concentration of 5 μg/mL and injected for 900 sec with a flow rate of 5 μL/min on Fc 2. All flow cells were quenched with 1 M ethanol amine (GE Healthcare Life Sciences, BR-1006-33), at 10 μL/min for 420 sec. Immobilization levels after ethanolamine quenching were 680 RU on all eight channels. Prior to analysis, two Startup cycles were run. Increasing mAbs concentrations were injected in single-cycle kinetics ranging from 1.2 to 100 nM, prepared from a 3-fold serial dilution in running buffer, with a contact time of 300 sec and a dissociation time of 3600 sec at a flow rate of 30 μL/min. Each cycle was followed by one regeneration using 10 mM Glycine-HCl pH 1.7 with a contact time of 30 sec at 30 μL/min, followed by a stabilization period of 300 sec. Results obtained from single-cycle kinetics were double-referenced using the blank Fc 1 and buffer cycles and evaluated using Biacore 8K evaluation software using the 1:1 kinetic fit model with RI and global Rmax. The following kinetic parameters were obtained: association rate constant (ka), dissociation rate constant (kd), affinity constant (KD) and saturation response (Rmax).

[1] = target: T3, human TDP-43 in CSF of a healthy donor (human, UniProt Q13148 1-414, limits assumed); experiment: SIMOA-based target engagement assay, unbound TDP-43 in human CSF pre-incubated with increasing antibody
T3 construct: also called TDP-43 in human CSF

T2 sequence (Q13148 whole entry): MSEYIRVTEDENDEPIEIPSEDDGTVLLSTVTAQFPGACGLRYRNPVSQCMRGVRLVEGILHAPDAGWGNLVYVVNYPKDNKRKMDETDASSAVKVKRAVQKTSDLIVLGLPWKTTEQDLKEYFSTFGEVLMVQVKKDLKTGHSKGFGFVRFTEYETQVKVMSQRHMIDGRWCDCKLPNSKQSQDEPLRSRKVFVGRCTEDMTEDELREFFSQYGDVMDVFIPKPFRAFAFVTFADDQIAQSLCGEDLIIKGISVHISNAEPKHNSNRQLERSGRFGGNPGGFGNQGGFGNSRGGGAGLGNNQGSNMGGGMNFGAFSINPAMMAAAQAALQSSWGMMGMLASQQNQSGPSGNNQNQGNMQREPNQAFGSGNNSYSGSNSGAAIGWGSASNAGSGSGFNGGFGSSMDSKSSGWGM

Binder | Kd (TP-51 peptide) [nM] | koff (TP-51 peptide) [s⁻¹] | kon (TP-51 peptide) [M⁻¹ s⁻¹] | Kd (soluble TDP-43) [nM] | koff (soluble TDP-43) [s⁻¹] | kon (soluble TDP-43) [M⁻¹ s⁻¹] | EC50 [1]
hACI-7069-633B12-Ab1_H33L24 (antibody, V domains shown) VH: EVQLVQSGAEVKKPGATVKISCKVSGFTFTEYSMHWVQQAPGKGLEWMGGINPNNGGTSYNQKFQGRVTITADTSTDTAYMELSSLRSEDTAVYYCARESWGQGTTVTVSS VL: DIVMTQSPLSLPVTPGEPASISCKSSQSLLHSDGKTYLNWLLQKPGQSPQRLIYLVSKLDSRVPDRFSGSGSGTDFTLKISRVEAEDVGVYYCWQGTHFPHTFGQGTKLEIK | 2.2 | 0.00015 | 70000 | 0.471 | 1.3e-05 | 30000 | –
hACI-7069-633B12-Ab1_H27L23 (antibody, V domains shown) VH: EVQLVQSGAEVKKPGATVKISCKVSGFTFTEYSMHWVQQAPGKGLEWMGGINPNNGGTSYNQKFKGRVTITVDTSTDTAYMELSSLRSEDTAVYYCARESWGQGTTVTVSS VL: DVVMTQSPLSLPVTPGEPASISCKSSQSLLHSDGKTYLNWLLQKPGQSPQRLIYLVSKLDSRVPDRFSGSGSGTDFTLKISRVEAEDVGVYYCWQGTHFPHTFGQGTKLEIK | 3.3 | 0.00014 | 42000 | 0.925 | 2.2e-05 | 24000 | –
hACI-7069-633B12-Ab1_H32L26 (antibody, V domains shown) VH: EVQLVQSGAEVKKPGATVKISCKVSGFTFTEYSMHWVQQAPGKGLEWMGGINPQNAGTSYNQKFQGRVTITADTSTDTAYMELSSLRSEDTAVYYCARESWGQGTTVTVSS VL: DIVMTQSPLSLPVTPGEPASISCKSSQSLLHSDAKTYLNWLLQKPGQSPQRLIYLVSKLDSRVPDRFSGSGSGTDFTLKISRVEAEDVGVYYCFQGTHFPHTFGQGTKLEIK | 1.4 | 0.00016 | 120000 | 0.563 | 1.7e-05 | 33000 | –
hACI-7069-633B12-Ab1_H33L27 (antibody, V domains shown) VH: EVQLVQSGAEVKKPGATVKISCKVSGFTFTEYSMHWVQQAPGKGLEWMGGINPNNGGTSYNQKFQGRVTITADTSTDTAYMELSSLRSEDTAVYYCARESWGQGTTVTVSS VL: DIVMTQSPLSLPVTPGEPASISCKSSQSLLHSDGKTYLNWLLQKPGQSPQRLIYLVSKLDSRVPDRFSGSGSGTDFTLKISRVEAEDVGVYYCFQGTHFPHTFGQGTKLEIK | 0.8 | 0.00012 | 150000 | 0.126 | 6.5e-06 | 52000 | 0.0356 µg/mL and 0.237 nM
hACI-7069-633B12-Ab1_H32L27 (antibody, V domains shown) VH: EVQLVQSGAEVKKPGATVKISCKVSGFTFTEYSMHWVQQAPGKGLEWMGGINPQNAGTSYNQKFQGRVTITADTSTDTAYMELSSLRSEDTAVYYCARESWGQGTTVTVSS VL: DIVMTQSPLSLPVTPGEPASISCKSSQSLLHSDGKTYLNWLLQKPGQSPQRLIYLVSKLDSRVPDRFSGSGSGTDFTLKISRVEAEDVGVYYCFQGTHFPHTFGQGTKLEIK | 1 | 0.00012 | 120000 | 0.143 | 5.2e-06 | 36000 | –
hACI-7069-633B12-Ab1_H28L22 (antibody, V domains shown) VH: EVQLVQSGAEVKKPGATVKISCKVSGFTFTEYSMHWVQQAPGKGLEWMGGINPNNGGTSYNQKFKGRVTITADTSTDTAYMELSSLRSEDTAVYYCARESWGQGTTVTVSS VL: DIVMTQSPLSLPVTPGEPASISCKSSQSLLHSDGKTYLNWLLQKPGQSPKRLIYLVSKLDSRVPDRFSGSGSGTDFTLKISRVEAEDVGVYYCWQGTHFPHTFGQGTKLEIK | 3.5 | 0.0002 | 58000 | 1.16 | 3.4e-05 | 29000 | –
hACI-7069-633B12-Ab1_H32L24 (antibody, V domains shown) VH: EVQLVQSGAEVKKPGATVKISCKVSGFTFTEYSMHWVQQAPGKGLEWMGGINPQNAGTSYNQKFQGRVTITADTSTDTAYMELSSLRSEDTAVYYCARESWGQGTTVTVSS VL: DIVMTQSPLSLPVTPGEPASISCKSSQSLLHSDGKTYLNWLLQKPGQSPQRLIYLVSKLDSRVPDRFSGSGSGTDFTLKISRVEAEDVGVYYCWQGTHFPHTFGQGTKLEIK | 2 | 0.00012 | 64000 | 0.716 | 1.5e-05 | 24000 | –
hACI-7069-633B12-Ab1_H28L23 (antibody, V domains shown) VH: EVQLVQSGAEVKKPGATVKISCKVSGFTFTEYSMHWVQQAPGKGLEWMGGINPNNGGTSYNQKFKGRVTITADTSTDTAYMELSSLRSEDTAVYYCARESWGQGTTVTVSS VL: DVVMTQSPLSLPVTPGEPASISCKSSQSLLHSDGKTYLNWLLQKPGQSPQRLIYLVSKLDSRVPDRFSGSGSGTDFTLKISRVEAEDVGVYYCWQGTHFPHTFGQGTKLEIK | 1.9 | 0.00013 | 65000 | 0.806 | 2.6e-05 | 32000 | –
hACI-7069-633B12-Ab1_H28L24 (antibody, V domains shown) VH: EVQLVQSGAEVKKPGATVKISCKVSGFTFTEYSMHWVQQAPGKGLEWMGGINPNNGGTSYNQKFKGRVTITADTSTDTAYMELSSLRSEDTAVYYCARESWGQGTTVTVSS VL: DIVMTQSPLSLPVTPGEPASISCKSSQSLLHSDGKTYLNWLLQKPGQSPQRLIYLVSKLDSRVPDRFSGSGSGTDFTLKISRVEAEDVGVYYCWQGTHFPHTFGQGTKLEIK | 2 | 0.00013 | 66000 | 0.531 | 1.7e-05 | 37000 | –
hACI-7069-633B12-Ab1_H33L26 (antibody, V domains shown) VH: EVQLVQSGAEVKKPGATVKISCKVSGFTFTEYSMHWVQQAPGKGLEWMGGINPNNGGTSYNQKFQGRVTITADTSTDTAYMELSSLRSEDTAVYYCARESWGQGTTVTVSS VL: DIVMTQSPLSLPVTPGEPASISCKSSQSLLHSDAKTYLNWLLQKPGQSPQRLIYLVSKLDSRVPDRFSGSGSGTDFTLKISRVEAEDVGVYYCFQGTHFPHTFGQGTKLEIK | 1.6 | 0.00029 | 160000 | 0.22 | 9e-06 | 43000 | –
ACI-7069-633B12-Ab1 (antibody, V domains shown, also called murine parental antibody) VH: EVQLQQSGPELVKPGASVKISCKTSGFTFTEYSMHWVKQSHGKSLEWIGGINPNNGGTSYNQKFKGKATLTVDKSSSTAYMELRSLTSEDSAVYYCARESWGQGTTLTVSS VL: not shown | 1.5 | 9.8e-05 | 67000 | 0.328 | 1.7e-05 | 55000 | –
